How the values were obtained:
[1] = target: pL αSyn71–82 (protein L W47Y I60F N14C scaffold with αSyn residues 71–82 inserted in the extended β3‐β4 loop); assay: dynamic force spectroscopy (AFM); pL αSyn71–82 on AFM tip and surface; retraction speeds 200 to 5000 nm s^-1; Bell‐Evans fit, dissociation rate constant in the absence of force; 20 mM HEPES pH 7.5, room temperature
[2] = target: pL αSyn71–82 (protein L W47Y I60F N14C scaffold with αSyn residues 71–82 inserted in the extended β3‐β4 loop); assay: native MS; ESI–MS of 100 μM pL constructs in 100 mM ammonium acetate pH 6.8, equal volumes mixed for heterodimers; after quiescent incubation for 4 h at 25°C
[3] = target: pL αSyn71–82 (protein L W47Y I60F N14C scaffold with αSyn residues 71–82 inserted in the extended β3‐β4 loop); assay: single molecule force spectroscopy (AFM); pL constructs coupled through Cys14 to maleimide‐PEG on both the AFM tip and the surface; retraction 1 μm s^-1 (1000 nm s^-1), approach 2 µm s^-1; 20 mM HEPES pH 7.5, room temperature; triplicate
[4] = target: pL γSyn71–82 (protein L W47Y I60F N14C scaffold with γSyn residues 71–82 inserted in the extended β3‐β4 loop); assay: native MS; ESI–MS of 100 μM pL constructs in 100 mM ammonium acetate pH 6.8, equal volumes mixed for heterodimers; after quiescent incubation for 4 h at 25°C
[5] = target: the molecule itself; assay: native MS; ESI–IMS–MS of synthetic peptides alone and in a 1:1 mixture; 100 μM final in 100 mM ammonium acetate pH 6.8
[6] = target: T1, αSyn71–82 synthetic peptide; assay: cell-based or functional assay
T1 peptide: Ac-VTGVTAVAQKTV-NH2

[7] = target: T2, αSyn71–82 synthetic peptide; assay: native MS; ESI–IMS–MS of synthetic peptides alone and in a 1:1 mixture; 100 μM final in 100 mM ammonium acetate pH 6.8; settings: remark: other sources report otherwise
T2 chain: VTGVTAVAQKTV

pL αSyn71–82 (protein L W47Y I60F N14C scaffold with αSyn residues 71–82 inserted in the extended β3‐β4 loop)
koff [1]: 0.18 s⁻¹
lifetime [1]: 6 s
stoichiometry N [2]: < 3
hit rate [3]: 4%
rupture force (F R) [3]: 57 pN

pL γSyn71–82 (protein L W47Y I60F N14C scaffold with γSyn residues 71–82 inserted in the extended β3‐β4 loop)
stoichiometry N [4]: 2
hit rate (frequency of detection) [3]: 3.2%
rupture force (F R) [3]: 53 pN

B1: γSyn71–82 synthetic peptide (peptide)
peptide: Ac-VSSVNTVATKTV-NH2
notes: γ‐synuclein, central NAC region, residues 71–82; also called central NAC region of γSyn; source: bought: Genscript, synthetic peptide, >99% purity
stoichiometry N [5]: ≤ 14
increase in lag‐time of ThT fluorescence of the 1:1 peptide mixture compared with αSyn71–82 alone [6]: 2.5 fold
increase in lag‐time of ThT fluorescence of the 1:1 peptide mixture compared with γSyn71–82 alone [6]: 5.7 fold

Ac-VTGVTAVAQKTV-NH2 [αSyn71–82 synthetic peptide]
stoichiometry N [7]: < 14
